Laboratory results reported in patent US20250262210A1 (TRUSTEES OF COLUMBIA UNIVERSITY IN THE CITY OF NEW YORK, published 2025).

Legend:
Experiment in all cases: IP/MS, LZTR1 wild type-FLAG, U87
FKBP15 = target: T1, FKBP15 (human, UniProt Q5T1M5 1-1219, limits assumed)
T1 sequence (looked up): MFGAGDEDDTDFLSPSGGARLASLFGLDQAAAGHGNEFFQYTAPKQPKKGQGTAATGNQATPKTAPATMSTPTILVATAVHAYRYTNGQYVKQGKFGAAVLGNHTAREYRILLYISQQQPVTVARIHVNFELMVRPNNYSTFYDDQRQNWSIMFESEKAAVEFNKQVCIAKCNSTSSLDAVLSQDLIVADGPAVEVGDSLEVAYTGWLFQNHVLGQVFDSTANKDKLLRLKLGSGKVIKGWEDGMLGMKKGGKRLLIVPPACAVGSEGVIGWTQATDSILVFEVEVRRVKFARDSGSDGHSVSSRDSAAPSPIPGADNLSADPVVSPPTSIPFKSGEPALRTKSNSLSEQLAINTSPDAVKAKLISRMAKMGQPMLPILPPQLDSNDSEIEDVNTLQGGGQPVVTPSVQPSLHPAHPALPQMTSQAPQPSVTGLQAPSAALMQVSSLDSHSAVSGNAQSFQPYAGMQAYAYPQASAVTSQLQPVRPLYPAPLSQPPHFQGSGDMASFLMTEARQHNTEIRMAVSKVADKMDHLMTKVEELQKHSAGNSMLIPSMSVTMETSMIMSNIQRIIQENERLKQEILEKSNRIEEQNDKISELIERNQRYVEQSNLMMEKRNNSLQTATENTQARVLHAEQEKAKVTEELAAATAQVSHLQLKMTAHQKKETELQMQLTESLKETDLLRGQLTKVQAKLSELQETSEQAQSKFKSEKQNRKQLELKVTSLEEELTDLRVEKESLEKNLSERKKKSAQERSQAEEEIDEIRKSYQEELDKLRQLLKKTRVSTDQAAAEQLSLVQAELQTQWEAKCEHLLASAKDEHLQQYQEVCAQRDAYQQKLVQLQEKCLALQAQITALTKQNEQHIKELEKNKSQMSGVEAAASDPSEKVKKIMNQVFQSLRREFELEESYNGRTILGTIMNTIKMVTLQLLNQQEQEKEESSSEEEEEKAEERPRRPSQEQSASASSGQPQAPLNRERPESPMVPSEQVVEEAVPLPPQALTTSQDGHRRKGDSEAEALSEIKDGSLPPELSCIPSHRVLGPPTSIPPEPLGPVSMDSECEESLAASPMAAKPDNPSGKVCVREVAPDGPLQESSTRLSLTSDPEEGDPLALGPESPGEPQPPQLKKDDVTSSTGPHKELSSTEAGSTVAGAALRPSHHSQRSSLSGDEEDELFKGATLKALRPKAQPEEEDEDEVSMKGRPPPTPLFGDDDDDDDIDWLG
Summary of the method: (§1)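 Extracted peptides in 3% acetonitrile/0.1% formic acid ran on a 50 cm C18 column into an Orbitrap Fusion, with MaxQuant identification and spectral counting.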

ARFGEF1 = ARFGEF1 (human, UniProt Q9Y6D6 1-1849)
ARFGEF1, sequence (Q9Y6D6 whole entry): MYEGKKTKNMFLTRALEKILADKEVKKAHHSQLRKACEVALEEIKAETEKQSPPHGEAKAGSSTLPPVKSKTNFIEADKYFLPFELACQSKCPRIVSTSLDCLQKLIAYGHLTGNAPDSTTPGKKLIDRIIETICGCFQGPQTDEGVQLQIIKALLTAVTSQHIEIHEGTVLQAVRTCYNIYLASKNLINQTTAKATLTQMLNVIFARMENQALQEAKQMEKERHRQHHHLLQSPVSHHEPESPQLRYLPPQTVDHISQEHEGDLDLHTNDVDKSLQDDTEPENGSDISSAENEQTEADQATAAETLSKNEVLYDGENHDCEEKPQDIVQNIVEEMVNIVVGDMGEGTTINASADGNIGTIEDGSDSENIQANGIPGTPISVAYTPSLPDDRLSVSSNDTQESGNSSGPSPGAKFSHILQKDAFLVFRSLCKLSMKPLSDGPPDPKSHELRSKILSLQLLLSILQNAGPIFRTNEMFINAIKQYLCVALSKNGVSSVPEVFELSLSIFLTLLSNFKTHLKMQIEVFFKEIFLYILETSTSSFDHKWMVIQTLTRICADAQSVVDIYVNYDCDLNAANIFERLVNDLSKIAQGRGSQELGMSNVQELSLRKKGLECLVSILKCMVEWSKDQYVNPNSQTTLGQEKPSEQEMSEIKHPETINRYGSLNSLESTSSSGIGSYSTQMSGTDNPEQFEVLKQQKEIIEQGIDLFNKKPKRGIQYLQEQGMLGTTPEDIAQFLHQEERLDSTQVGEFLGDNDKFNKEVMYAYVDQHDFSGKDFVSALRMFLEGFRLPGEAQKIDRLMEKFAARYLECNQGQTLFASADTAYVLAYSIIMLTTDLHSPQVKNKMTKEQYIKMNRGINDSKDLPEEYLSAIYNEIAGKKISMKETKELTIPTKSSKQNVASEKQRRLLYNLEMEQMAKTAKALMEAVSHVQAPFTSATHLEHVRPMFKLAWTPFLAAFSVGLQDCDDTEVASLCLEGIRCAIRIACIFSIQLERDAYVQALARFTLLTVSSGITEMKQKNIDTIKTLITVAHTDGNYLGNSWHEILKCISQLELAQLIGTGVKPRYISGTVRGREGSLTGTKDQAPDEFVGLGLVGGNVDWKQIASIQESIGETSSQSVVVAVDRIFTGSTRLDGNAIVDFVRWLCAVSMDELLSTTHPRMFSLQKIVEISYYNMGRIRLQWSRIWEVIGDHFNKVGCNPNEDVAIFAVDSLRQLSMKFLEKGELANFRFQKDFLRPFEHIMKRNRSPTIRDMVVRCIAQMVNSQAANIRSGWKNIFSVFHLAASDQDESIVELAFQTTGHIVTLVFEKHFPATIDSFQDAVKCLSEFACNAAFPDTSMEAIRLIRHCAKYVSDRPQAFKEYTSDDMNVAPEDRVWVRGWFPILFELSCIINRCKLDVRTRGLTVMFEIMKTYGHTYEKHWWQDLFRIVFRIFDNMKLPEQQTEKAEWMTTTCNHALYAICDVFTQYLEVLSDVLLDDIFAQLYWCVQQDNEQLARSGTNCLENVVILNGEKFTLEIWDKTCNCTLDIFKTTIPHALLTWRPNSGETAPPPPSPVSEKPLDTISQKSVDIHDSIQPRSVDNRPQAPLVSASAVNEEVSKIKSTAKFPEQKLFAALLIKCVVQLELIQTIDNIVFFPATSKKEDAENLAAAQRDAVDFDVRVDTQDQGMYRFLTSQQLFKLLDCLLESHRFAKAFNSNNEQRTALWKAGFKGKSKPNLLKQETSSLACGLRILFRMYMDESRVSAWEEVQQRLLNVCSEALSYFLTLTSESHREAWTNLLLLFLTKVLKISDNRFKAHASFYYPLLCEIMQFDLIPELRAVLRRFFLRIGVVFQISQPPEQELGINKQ
Summary of the method: as §1

SPG11 = SPG11 (human, UniProt Q96JI7 1-2443, limits assumed)
SPG11, sequence (Q96JI7 whole entry): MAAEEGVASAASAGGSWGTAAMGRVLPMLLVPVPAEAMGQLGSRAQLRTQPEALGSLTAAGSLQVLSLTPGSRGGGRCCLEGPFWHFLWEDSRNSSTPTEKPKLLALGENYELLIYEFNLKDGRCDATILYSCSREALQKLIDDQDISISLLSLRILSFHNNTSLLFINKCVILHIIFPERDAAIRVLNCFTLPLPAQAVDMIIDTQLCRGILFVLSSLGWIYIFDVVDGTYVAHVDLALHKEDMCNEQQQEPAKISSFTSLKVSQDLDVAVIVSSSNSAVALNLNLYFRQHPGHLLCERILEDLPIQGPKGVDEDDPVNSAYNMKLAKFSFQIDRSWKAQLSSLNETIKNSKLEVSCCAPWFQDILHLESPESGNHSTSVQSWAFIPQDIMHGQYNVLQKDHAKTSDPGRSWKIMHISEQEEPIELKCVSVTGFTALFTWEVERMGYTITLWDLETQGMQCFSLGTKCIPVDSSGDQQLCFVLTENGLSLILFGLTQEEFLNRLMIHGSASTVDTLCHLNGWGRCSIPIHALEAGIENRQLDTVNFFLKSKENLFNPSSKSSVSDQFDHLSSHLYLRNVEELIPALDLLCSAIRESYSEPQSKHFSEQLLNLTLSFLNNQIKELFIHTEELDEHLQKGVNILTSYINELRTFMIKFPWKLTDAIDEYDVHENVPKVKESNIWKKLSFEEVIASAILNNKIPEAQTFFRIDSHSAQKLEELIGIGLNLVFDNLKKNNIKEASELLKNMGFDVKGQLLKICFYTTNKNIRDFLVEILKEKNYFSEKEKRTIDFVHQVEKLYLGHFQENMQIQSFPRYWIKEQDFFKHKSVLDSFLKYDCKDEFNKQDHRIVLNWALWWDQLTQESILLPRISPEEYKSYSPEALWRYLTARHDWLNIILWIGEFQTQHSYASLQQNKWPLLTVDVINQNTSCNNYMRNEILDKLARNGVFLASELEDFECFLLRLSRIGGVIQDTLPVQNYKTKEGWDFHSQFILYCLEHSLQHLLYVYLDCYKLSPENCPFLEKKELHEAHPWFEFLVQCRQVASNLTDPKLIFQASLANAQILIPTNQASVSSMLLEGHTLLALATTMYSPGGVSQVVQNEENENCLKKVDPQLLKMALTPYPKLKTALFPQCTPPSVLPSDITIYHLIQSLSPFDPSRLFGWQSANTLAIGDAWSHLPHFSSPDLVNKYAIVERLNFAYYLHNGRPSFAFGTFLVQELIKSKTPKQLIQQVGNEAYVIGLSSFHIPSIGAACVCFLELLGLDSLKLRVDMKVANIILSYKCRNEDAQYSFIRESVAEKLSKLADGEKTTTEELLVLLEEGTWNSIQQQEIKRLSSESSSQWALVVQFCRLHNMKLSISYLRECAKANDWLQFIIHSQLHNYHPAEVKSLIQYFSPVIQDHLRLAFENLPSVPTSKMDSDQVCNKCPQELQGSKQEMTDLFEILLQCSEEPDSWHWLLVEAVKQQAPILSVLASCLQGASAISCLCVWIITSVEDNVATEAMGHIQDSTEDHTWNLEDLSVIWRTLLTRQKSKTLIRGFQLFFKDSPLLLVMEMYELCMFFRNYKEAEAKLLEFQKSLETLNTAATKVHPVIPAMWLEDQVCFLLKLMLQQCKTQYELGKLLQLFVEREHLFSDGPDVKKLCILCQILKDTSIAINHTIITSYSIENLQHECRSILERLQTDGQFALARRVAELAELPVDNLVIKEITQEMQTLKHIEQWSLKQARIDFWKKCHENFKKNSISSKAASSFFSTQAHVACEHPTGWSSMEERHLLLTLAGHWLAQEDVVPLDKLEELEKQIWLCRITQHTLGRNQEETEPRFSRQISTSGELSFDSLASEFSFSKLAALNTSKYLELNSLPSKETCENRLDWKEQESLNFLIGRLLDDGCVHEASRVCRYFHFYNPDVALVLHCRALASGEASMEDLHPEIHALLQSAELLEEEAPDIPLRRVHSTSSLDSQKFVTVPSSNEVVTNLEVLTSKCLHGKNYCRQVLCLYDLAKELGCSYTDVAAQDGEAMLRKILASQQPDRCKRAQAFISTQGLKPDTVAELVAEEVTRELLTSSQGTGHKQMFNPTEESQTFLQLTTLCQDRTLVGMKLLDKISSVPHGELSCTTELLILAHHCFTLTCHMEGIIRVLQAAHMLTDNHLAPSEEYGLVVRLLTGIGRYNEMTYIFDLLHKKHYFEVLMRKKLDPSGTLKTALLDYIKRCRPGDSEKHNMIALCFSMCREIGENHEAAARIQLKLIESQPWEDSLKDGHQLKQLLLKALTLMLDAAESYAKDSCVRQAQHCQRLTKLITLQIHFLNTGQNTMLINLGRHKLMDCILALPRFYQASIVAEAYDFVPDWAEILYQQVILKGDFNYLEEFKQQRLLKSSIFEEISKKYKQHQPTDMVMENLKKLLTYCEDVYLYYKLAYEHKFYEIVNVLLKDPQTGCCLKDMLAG
Summary of the method: as §1

binding result (FKBP15): binds
binding result (ARFGEF1): binds
binding result (SPG11): binds
B1: LZTR1-FLAG (other, human, UniProt Q8N653 1-840, looked up)
chain: MAGPGSTGGQIGAAALAGGARSKVAPSVDFDHSCSDSVEYLTLNFGPFETVHRWRRLPPCDEFVGARRSKHTVVAYKDAIYVFGGDNGKTMLNDLLRFDVKDCSWCRAFTTGTPPAPRYHHSAVVYGSSMFVFGGYTGDIYSNSNLKNKNDLFEYKFATGQWTEWKIEGRLPVARSAHGATVYSDKLWIFAGYDGNARLNDMWTIGLQDRELTCWEEVAQSGEIPPSCCNFPVAVCRDKMFVFSGQSGAKITNNLFQFEFKDKTWTRIPTEHLLRGSPPPPQRRYGHTMVAFDRHLYVFGGAADNTLPNELHCYDVDFQTWEVVQPSSDSEVGGAEVPERACASEEVPTLTYEERVGFKKSRDVFGLDFGTTSAKQPTQPASELPSGRLFHAAAVISDAMYIFGGTVDNNIRSGEMYRFQFSCYPKCTLHEDYGRLWESRQFCDVEFVLGEKEECVQGHVAIVTARSRWLRRKITQARERLAQKLEQEAAPVPREAPGVAAGGARPPLLHVAIREAEARPFEVLMQFLYTDKIKYPRKGHVEDVLLIMDVYKLALSFQLCRLEQLCRQYIEASVDLQNVLVVCESAARLQLSQLKEHCLNFVVKESHFNQVIMMKEFERLSSPLIVEIVRRKQQPPPRTPLDQPVDIGTSLIQDMKAYLEGAGAEFCDITLLLDGHPRPAHKAILAARSSYFEAMFRSFMPEDGQVNISIGEMVPSRQAFESMLRYIYYGEVNMPPEDSLYLFAAPYYYGFYNNRLQAYCKQNLEMNVTVQNVLQILEAADKTQALDMKRHCLHIIVHQFTKVSKLPTLRSLSQQLLLDIIDSLASHISDKQCAELGADI
notes: Expressed in HEK 293T, HeLa or U87 cells; used as cell lysate; also called LZTR1 wild type-FLAG; LZTR1 WT; not shown: FLAG tag at the C-terminus
